From publication PMC3689669
pEC50, pKd: −log10 of the molar value.

Experiments:
[1] = molecular target: GST-HK10_(544–563), GST fusion of the human K10 C-terminal tail region (UniProt P13645); assay: SPR; BIAcore X, 25°C; GST-HK10(544–563) (500 nM) captured on immobilised goat anti-GST IgG, GST alone on the reference cell; SpsD passed over in increasing concentrations, 5 µl/min; KD from equilibrium response
[2] = molecular target: Canine fibrinogen (canine) (UniProt P68213); assay: SPR; BIAcore X, 25°C; ligand covalently immobilised on CM5 chip; SpsD passed over in increasing concentrations without regeneration, 5 µl/min, PBS with 0.005% Tween 20; KD from equilibrium response against concentration
Human fibrinogen (human) = Human fibrinogen (human) (UniProt P02671); assay: as above
Human fibrinogen (human), sequence (P02671 other isoform, or with tags, fused parts or gaps, chain 1 of 3): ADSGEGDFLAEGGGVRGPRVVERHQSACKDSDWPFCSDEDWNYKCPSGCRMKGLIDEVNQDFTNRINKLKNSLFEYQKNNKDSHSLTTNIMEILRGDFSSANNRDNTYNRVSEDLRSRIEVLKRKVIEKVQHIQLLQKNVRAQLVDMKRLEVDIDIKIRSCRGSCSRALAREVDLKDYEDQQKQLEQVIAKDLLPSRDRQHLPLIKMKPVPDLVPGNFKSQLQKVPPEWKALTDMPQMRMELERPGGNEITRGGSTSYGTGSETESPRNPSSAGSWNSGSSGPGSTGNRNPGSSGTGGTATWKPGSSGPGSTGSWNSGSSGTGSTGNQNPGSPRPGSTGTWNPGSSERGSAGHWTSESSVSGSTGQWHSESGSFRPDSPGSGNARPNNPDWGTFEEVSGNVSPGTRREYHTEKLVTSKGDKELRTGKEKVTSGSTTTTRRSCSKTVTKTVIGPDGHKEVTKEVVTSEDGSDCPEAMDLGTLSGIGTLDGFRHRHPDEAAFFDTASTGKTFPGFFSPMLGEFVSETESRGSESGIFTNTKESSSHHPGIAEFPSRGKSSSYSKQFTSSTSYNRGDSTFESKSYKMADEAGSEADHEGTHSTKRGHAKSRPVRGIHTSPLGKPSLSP
Human fibrinogen (human), sequence (P02675 31-491, chain 2 of 3, further chain): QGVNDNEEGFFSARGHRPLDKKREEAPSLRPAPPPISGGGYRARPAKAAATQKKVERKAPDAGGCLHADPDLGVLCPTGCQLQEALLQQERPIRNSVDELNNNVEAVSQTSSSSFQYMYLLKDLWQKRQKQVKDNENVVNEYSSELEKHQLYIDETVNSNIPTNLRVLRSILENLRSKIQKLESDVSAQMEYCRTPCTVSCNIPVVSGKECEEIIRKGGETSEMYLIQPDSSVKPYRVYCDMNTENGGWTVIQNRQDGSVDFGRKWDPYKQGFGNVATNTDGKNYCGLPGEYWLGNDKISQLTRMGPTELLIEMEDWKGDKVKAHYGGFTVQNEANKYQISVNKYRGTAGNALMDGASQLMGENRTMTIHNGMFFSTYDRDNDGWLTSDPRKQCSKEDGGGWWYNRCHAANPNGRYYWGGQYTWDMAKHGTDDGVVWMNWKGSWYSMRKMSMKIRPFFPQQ
Human fibrinogen (human), sequence (P02679 other isoform, or with tags, fused parts or gaps, chain 3 of 3, further chain): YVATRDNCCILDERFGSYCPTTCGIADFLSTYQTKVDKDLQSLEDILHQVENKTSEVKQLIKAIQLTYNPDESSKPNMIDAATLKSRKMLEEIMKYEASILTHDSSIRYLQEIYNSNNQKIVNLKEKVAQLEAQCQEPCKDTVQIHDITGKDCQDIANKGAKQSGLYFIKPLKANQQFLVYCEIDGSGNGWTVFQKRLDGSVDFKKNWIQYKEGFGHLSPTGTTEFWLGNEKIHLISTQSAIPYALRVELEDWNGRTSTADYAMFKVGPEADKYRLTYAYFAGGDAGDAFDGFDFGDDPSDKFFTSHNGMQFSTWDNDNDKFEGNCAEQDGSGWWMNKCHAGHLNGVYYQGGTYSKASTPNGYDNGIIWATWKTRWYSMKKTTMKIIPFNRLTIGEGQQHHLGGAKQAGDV

[3] = molecular target: Human plasma fibronectin (human); assay: as above
[4] = molecular target: α-elastin, a heterogeneous mixture of soluble peptides obtained from human lung (human); assay: as above
[5] = molecular target: GST-HK10_(544–563), GST fusion of the human K10 C-terminal tail region (UniProt P13645); assay: ELISA; settings: value read at the highest concentration, 20 µM protein added; immobilized K10 (panel title GST-HK10 544-563) coated in bicarbonate buffer overnight; parent: est. 1.2; read off a plot
[6] = molecular target: Human fibrinogen, P02671-2;P02675;P02679-2; assay: ELISA; settings: value read at the highest concentration, 16 µM protein added; immobilized human Fbg coated in bicarbonate buffer overnight; parent: est. 1.5; read off a plot
Human plasma fibronectin = assay: ELISA; settings: value read at the highest concentration, 20 µM protein added; immobilized Fn coated in bicarbonate buffer overnight; parent: est. 1.7; read off a plot
[7] = molecular target: α-elastin, a heterogeneous mixture of soluble peptides obtained from human lung; assay: ELISA; settings: value read at the highest concentration, 20 µM protein added; immobilized α-elastin coated in bicarbonate buffer overnight; parent: est. 1.8; read off a plot
[8] = molecular target: GST-Fbgγ_(395–411), GST fusion of the human Fbg γ-chain sequence (human) (UniProt P02679); assay: ELISA; GST-Fbg γ chain or GST coated on microtiter wells; increasing concentrations of SpsD167–519; detected with anti-6-His IgG
[9] = molecular target: Mouse cytokeratin 10 (residues 1–570) (mouse) (UniProt P02535); assay: ELISA; mouse K10 proteins, GST-HK10(544–563) or GST coated on wells; increasing concentrations of SpsD167–519; detected with anti-SpsD37–519 IgG
Mouse cytokeratin 10 (residues 1–570) (mouse), sequence (P02535 whole entry, the tested form may be a part): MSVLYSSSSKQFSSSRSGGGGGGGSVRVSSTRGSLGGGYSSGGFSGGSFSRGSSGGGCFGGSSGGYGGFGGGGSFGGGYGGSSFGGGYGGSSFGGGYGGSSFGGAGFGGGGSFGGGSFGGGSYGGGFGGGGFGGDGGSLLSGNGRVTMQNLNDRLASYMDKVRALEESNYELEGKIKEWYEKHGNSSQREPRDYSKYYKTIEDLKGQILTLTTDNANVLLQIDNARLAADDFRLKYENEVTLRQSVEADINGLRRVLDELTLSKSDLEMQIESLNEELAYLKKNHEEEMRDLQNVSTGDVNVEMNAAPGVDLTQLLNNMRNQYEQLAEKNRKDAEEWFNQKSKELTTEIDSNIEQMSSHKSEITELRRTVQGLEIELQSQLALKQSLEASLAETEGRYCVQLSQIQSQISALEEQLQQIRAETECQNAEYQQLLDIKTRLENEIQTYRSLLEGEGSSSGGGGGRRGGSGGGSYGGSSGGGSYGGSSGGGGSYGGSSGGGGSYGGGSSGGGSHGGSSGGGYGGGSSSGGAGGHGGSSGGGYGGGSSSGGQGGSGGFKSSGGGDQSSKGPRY

[10] = molecular target: Mouse cytokeratin 10 C-terminal tail region (MK10_(454–570)) (mouse) (UniProt P02535); assay: as above
Mouse cytokeratin 10 C-terminal tail region (MK10_(454–570)) (mouse), sequence (P02535 454-570): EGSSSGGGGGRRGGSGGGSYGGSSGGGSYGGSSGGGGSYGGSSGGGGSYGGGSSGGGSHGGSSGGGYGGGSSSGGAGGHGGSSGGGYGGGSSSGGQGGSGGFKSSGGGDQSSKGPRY

[11] = molecular target: N-terminal fragment of fibronectin (N29) containing the five N-terminal type I modules (human); assay: ELISA; Fn (1 µg/well) and Fn fragments (250 ng/well) coated; SpsD167–519 in solution, detected with anti-SpsD37–519 antibody; FnBPB163–480 as control, detected with anti-FnBPB163–480 IgG
[12] = molecular target: Recombinant fibronectin fragment, residues 1266–1908 (extra domain B plus type III modules 8–13 and the initial region of module 14) (UniProt P02751); assay: as above
Recombinant fibronectin fragment, residues 1266–1908 (extra domain B plus type III modules 8–13 and the initial region of module 14), sequence (P02751 1266-1908): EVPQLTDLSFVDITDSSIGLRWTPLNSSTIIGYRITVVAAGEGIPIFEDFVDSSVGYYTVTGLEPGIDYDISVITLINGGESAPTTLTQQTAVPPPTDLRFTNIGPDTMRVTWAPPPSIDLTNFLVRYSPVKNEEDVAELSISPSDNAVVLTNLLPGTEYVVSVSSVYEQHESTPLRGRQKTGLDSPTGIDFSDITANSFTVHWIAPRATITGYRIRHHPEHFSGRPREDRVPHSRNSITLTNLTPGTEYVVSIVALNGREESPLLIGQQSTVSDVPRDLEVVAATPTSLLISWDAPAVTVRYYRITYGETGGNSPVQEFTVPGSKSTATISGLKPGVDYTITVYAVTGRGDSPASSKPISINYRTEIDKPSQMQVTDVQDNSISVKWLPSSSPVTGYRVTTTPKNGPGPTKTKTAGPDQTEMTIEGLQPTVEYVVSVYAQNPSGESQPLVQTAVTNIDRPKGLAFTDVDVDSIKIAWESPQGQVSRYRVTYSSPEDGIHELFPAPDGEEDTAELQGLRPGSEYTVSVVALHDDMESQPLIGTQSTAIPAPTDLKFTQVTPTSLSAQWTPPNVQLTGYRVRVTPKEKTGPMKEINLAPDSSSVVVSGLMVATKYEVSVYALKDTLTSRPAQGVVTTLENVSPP

GST-HK10_(544–563), GST fusion of the human K10 C-terminal tail region, sequence (P13645 544-563): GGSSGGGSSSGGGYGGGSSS

## SpsD_(37–519), A domain (N1N2N3 region) of SpsD from S. pseudintermedius strain 326 (domain or fragment)
[1]
  pKd: 6.04
[2]
  pKd: 6.44
Human fibrinogen (human)
  pKd: 6.42
[3]
  pKd: 5.63
[4]
  pKd: 5.92

## SpsD_(167–519), N2N3 subdomains of the A domain of SpsD from S. pseudintermedius strain 326 F288A
[5]
  response: 0.97 A490
[6]
  response: 0.11 A490
Human plasma fibronectin
  response: 1.6 A490
[7]
  response: 0.67 A490

## SpsD_(167–519), N2N3 subdomains of the A domain of SpsD from S. pseudintermedius strain 326 (domain or fragment)
[8]
  pEC50: 6.49
[9]
  pEC50: 5.99
[10]
  pEC50: 5.92
[11]
  pEC50: 5.66
[12]
  pEC50: 5.71
[1]
  pKd: 6.08
[2]
  pKd: 6.47
Human fibrinogen (human)
  pKd: 6.44
[3]
  pKd: 5.67
[4]
  pKd: 5.99
